The values below come from US20200181261A1 (Bayer, published 2020).

Test [1] has as its target T1, human CEACAM3, extracellular (mature form), Sino Biological Inc. 11933-H08H (human, UniProt P40198 35-155).
T1 construct: used biotinylated in some assays; also called TPP-2755
T1 sequence: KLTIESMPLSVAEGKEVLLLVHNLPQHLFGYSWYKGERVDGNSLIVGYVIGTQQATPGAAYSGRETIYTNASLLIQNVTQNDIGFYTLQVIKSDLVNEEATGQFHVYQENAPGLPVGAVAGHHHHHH
As to the kind of experiment: SPR, antibody captured, antigen as analyte. The method, then:
(§1) Surface plasmon resonance (SPR) experiments for quantitative binding analyses were performed either using a Biacore T100, Biacore T200 or a Biacore 4000 instrument (GE Healthcare Biacore, Inc.) equipped with Series S Sensor Chips CM5 (GE Healthcare Biacore, Inc.). Binding assays were carried out at 25° C. with assay buffer HBS-EP+(10 mM HEPES pH 7.4, 150 mM NaCl, 3 mM EDTA, 0.05% Surfactant P20). Antibodies were captured with an anti-hIgG capture antibody covalently immobilized to the chip surface via amine coupling chemistry. Reagents for amine coupling (1-ethyl-3-(3-dimethylaminopropyl) carbodiimide hydrochloride (EDC), N-hydroxysuccinimide (NHS), ethanolamine-HCl pH 8.5) were used from the Amine Coupling Kit (GE Healthcare, product code BR-1000-50). Anti-hIgG, anti-mIgG capture antibodies and immobilization buffer (10 mM sodium acetate pH 5.0) were used from the Human Antibody Capture Kit (GE Healthcare, BR-1008-39) and the Mouse Antibody Capture Kit (GE Healthcare, BR-1008-38), respectively. The sensor chip surface was activated with a freshly prepared solution of 0.2 M EDC and 0.05 M NHS passed over the chip surface for 420 s at a flow rate of 10 μl/min, followed by an injection of anti-hIgG or anti-mIgG capture antibody (dissolved to 25 μg/ml in immobilization buffer) for 180 s at a flow rate of […]. Excess of activated groups were blocked with a 1 molar solution of ethanolamine injected at a flow rate of 10 μl/min for 420 s.
(§2) CEACAM antigens were used as analyte to determine KD values. Antibodies were captured for 20 s at a flow rate of 10 μl/min prior to each analyte injection.
(§3) Obtained sensorgrams were double-referenced, i.e. in-line reference cell correction followed by buffer sample subtraction.
On the technique in general: SPR reads the build-up and loss of mass on a sensor chip optically.

The target of test [2] is T2, Macaca fascicularis CEACAM6, extracellular (mature form), obtained by Factor Xa cleavage of TPP-2443 (Macaca fascicularis).
T2 construct: used biotinylated in some assays; also called APP-319; Cynomolgus CEACAM6
T2 chain: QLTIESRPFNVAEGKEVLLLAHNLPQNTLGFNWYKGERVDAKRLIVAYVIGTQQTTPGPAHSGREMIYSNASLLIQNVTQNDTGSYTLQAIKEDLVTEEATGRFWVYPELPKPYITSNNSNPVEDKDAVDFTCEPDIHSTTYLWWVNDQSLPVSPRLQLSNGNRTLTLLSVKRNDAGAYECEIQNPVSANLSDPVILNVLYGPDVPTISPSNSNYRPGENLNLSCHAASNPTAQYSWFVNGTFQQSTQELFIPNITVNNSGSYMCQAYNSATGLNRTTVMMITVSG
Put plainly: SPR, antibody captured, antigen as analyte. On the procedure:
as §1, §2, §3

For test [3], the target named is T3, Macaca fascicularis (cynomolgus) CEACAM6, full-length, on transfected HeLa cells (Macaca fascicularis, GPI anchor at the C-terminus on the cell surface, not carried by the letters).
T3 construct: also called TPP-4189; HeLa Cynomolgus CEACAM6
T3 chain: T2 chain
As to the kind of experiment: FACS, transfected HeLa cells. The procedure, abridged: (§4)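 Antibody binding to transfected HeLa cells was measured by FACS on a Canto II or FACS Array instrument. For half maximal binding (EC₅₀), primary antibodies were titrated from 0.1 nM to 100 nM. Median fluorescence intensity was plotted against log concentration, and curves were fitted in Graph Pad prism. Cells had been released with EDTA dissociation buffer and stained at 4° C.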

The target of test [4] is T4, human CEACAM3, full-length, on transfected HeLa cells (human, UniProt P40198 35-252).
T4 construct: also called TPP-4187; HeLa human CEACAM3
T4 sequence: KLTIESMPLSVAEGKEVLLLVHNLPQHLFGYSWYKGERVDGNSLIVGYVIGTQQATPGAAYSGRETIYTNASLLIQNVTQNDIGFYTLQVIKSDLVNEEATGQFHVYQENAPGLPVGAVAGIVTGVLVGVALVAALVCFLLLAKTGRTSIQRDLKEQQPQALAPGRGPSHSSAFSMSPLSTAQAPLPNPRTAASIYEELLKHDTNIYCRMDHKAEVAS
As to the kind of experiment: FACS, transfected HeLa cells. The procedure, abridged: as §4
A general note: A flow cytometer gives signals particle by particle.

In test [5] the target is T5, human CEACAM5, full-length, on transfected HeLa cells (human, UniProt P06731 35-685, GPI anchor at the C-terminus on the cell surface, not carried by the letters).
T5 construct: also called TPP-4188; HeLa human CEACAM5
T5 sequence: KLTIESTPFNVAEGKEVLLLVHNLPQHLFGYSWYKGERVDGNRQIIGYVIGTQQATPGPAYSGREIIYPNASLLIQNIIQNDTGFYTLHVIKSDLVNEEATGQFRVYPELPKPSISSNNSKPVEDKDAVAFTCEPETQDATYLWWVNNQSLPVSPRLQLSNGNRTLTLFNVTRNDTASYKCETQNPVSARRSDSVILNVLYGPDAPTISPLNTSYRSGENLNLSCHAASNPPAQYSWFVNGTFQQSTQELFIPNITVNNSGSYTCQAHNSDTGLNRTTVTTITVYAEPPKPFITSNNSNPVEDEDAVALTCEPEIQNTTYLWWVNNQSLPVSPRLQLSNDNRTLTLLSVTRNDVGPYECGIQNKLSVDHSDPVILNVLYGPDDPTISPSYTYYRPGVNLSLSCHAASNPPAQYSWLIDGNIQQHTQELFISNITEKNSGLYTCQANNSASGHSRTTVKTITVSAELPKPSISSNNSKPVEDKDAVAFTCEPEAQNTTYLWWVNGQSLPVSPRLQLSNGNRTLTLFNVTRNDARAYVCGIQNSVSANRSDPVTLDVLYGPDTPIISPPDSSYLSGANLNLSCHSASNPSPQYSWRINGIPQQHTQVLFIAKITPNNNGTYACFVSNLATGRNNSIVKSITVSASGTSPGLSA
As to the kind of experiment: FACS, transfected HeLa cells. The procedure, abridged: as §4

B1: TPP-2971 (antibody, mouse IgG1, V domains shown)
VH: QVTLKESGPGILQPSQTLSLTCSFSGFSLSTYGIGVGWIRQPSGKDLEWLAHIWWNDNKYYNTALKSRLTISKDTSNNQVFLKIASVDTADTATYYCARISLPYFDYWGQGTTLTVSS
VL: DIVMTQSQKFMSTSVGDRVSITCKASQNVGTAVAWYQQKPGQSPKLLIYSASNRYTGVPDRFTGSGSGTDFTLTISNMQSEDLADYFCQQYSSYPLTFGAGTKLELK
notes: murine hybridoma antibody, mouse IgG1; also called 792.15H12C9
What is called Kd is the free concentration of one partner at which half of the binding sites on the other are occupied at equilibrium, for simple one-to-one binding. A word on the EC50: it is the concentration that produces a half-maximal response. High values mean lower potency in that assay, low ones higher potency in that assay. Turning to B1, the binding result is “no binding (tested: 200 nM)” in test [1], “no binding (tested: 5 µg/ml)” in test [4] and “no binding (tested: 5 µg/ml)” in test [5]. This molecule gave a Kd in test [2] of 25 nM. Also, the EC50 in test [3] is 0.5 nM. Besides, the FACS median fluorescence in test [3] fell in the range of 100 to 1000 medianfluorescence.

B2: TPP-3714 (antibody, human IgG2, kappa)
heavy: QVTLRESGPALVKPTQTLTLTCTFSGFSLSTYGIGVGWIRQPPGKALEWLAHIWWNDNKYYSTSLKTRLTISKDTSKNQVVLTMTNMDPVDTATYYCARISLPYFDYWGQGTLVTVSSASTKGPSVFPLAPCSRSTSESTAALGCLVKDYFPEPVTVSWNSGALTSGVHTFPAVLQSSGLYSLSSVVTVPSSNFGTQTYTCNVDHKPSNTKVDKTVERKCCVECPPCPAPPVAGPSVFLFPPKPKDTLMISRTPEVTCVVVDVSHEDPEVQFNWYVDGVEVHNAKTKPREEQFNSTFRVVSVLTVVHQDWLNGKEYKCKVSNKGLPAPIEKTISKTKGQPREPQVYTLPPSREEMTKNQVSLTCLVKGFYPSDIAVEWESNGQPENNYKTTPPMLDSDGSFFLYSKLTVDKSRWQQGNVFSCSVMHEALHNHYTQKSLSLSPG
light: DIQLTQSPSFLSASVGDRVTITCKASQNVGTAVAWYQQKPGKAPKLLIYSASNRYTGVPSRFSGSGSGTEFTLTISSLQPEDFATYYCQQYSSYPLTFGGGTKVEIKRTVAAPSVFIFPPSDEQLKSGTASVVCLLNNFYPREAKVQWKVDNALQSGNSQESVTEQDSKDSTYSLSSTLTLSKADYEKHKVYACEVTHQGLSSPVTKSFNRGEC
notes: humanized from TPP-2971, human IgG2; also called TPP-2971HU2-hIgG2Kappa
Take B2: the binding result is “no binding (tested: 200 nM)” in test [1], “no binding (tested: 5 µg/ml)” in test [4] and “no binding (tested: 5 µg/ml)” in test [5]. This molecule also registered a Kd in test [2] of 27 nM. The half-maximal effective concentration (EC50) in test [3] came to 1 nM.
